For the experiment, the target named is BTN2A2-His tag protein (without Fc tag) (human) (UniProt Q8WVV5). Put plainly: MST.

pKd: −log10 of the molar value.

Kd data for one substance are collected here from publication PMC12873404.

As for “recombinant CD45RO-Fc protein (from UniProt P08575-4 26-1145) (Fc fusion)”, the pKd was 7.20.
